These results are taken from US20040053299A1, “Regulated activation of cell-membrane receptors by metal-chelating agonists” (priority 2003, published 2004).

Residue numbers refer to the chain shown, from its start.

The target of one assay is T1, human TPO receptor H499L (Homo sapiens, UniProt P40238, H499L).
T1 construct: expressed in transfected cells; host or cells: HepG2
T1 sequence (P40238 26-635 H499L): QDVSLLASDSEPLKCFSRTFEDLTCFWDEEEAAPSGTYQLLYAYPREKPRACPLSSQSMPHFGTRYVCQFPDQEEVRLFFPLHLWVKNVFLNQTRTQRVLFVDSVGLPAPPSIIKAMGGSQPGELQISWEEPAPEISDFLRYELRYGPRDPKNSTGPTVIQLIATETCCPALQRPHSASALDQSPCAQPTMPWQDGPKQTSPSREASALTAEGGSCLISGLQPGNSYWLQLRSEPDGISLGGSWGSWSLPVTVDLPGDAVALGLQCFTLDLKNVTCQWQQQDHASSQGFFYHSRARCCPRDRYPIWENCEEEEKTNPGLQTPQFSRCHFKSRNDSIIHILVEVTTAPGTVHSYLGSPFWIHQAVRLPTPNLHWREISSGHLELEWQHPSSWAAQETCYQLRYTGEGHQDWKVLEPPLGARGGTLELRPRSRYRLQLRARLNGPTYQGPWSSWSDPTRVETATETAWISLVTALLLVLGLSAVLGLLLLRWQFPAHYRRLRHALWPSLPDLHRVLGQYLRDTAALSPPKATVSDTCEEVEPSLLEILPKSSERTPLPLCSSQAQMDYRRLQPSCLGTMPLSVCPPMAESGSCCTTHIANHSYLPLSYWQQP
As to the kind of experiment: luciferase reporter in HepG2 cells, H499L point mutant of human TPO receptor. Type of assay: cell-based. To be noted: H499L point mutation in the human TPO receptor. An excerpt: (§1) To further investigate the activity of compounds of Formula (I), cDNA clones for cynomolgous monkey TPO receptor were isolated and sequenced. […] It was clear from these experiments that the compounds of Formula I show strict specificity for the human TPO receptor, a finding also confirmed by STAT activation assays of platelets from human and cyno origin. In order to examine the region of the TPO receptor required for compound activity, a series of human/cyno TPO-R chimeric receptors were transfected into HepG2 cells and tested for their response to compounds of Formula (I). […] To investigate the role of this specific transmembrane domain mutation on the activity of compounds of Formula (I), two point mutations were constructed: a) a H499L change into the human TPO receptor transmembrane domain, creating a receptor with human extracellular and cytoplasmic domains and a cyno receptor transmembrane domain and b) a L499H change into the cyno receptor transmembrane domain creating a chimera with cyno extracellular and cytoplasmic domains and a human transmembrane domain. […] Conversely, the L499H mutation in the cyno TPO receptor allowed it to be activated by both TPO and the compounds with potencies and efficacies similar to those seen on wild type human receptor. […]

The subject of a further assay is HepG2. The experiment in a line: STAT-responsive luciferase reporter in HepG2 cells without transfected receptor. To be noted: HepG2 transfected with STAT-responsive luciferase reporter only, no TPO receptor. Type of assay: cell-based, human. The procedure:
(§2) International Application No. PCT/US99/30371, published as WO 00/35446 on Jun. 22, 2000, discloses that the TPO receptor can be activated by small molecule ligands of Formula (I).
(§3) In determining the efficacy and potency of the presently invented compounds as agonists of dimeric cell-surface receptors, a luciferase reporter gene assay configured in HepG2 cells was utilized (see Tian et al., Science 1998, 281, 257-259).
HepG2 cells were plated in 24-well plates in triplicates for overnight. The cells were then transfected with the indicated receptor construct, a GAS response element containing luciferase reporter, 8×118-TkLUC and STAT5b expression vector (a gift of Dr. James Ihle, Memphis, Tenn.) by Superfect method (QIAGEN, Valencia, Calif.) as instructed by the manufacturer. After an overnight recovery, the transfected cells were treated with 0.1% DMSO, TPO or compound of Example 4 at the indicated concentrations for 4-5 hrs. The cells were then lysed and the level of luciferase expression was measured by a plate reader.

In the next assay the test system is cyno TPO receptor L499H. As to the kind of experiment: luciferase reporter in HepG2 cells, L499H point mutant of cyno TPO receptor. Type of assay: cell-based, cynomolgous monkey. The note with it: L499H mutation in the cyno TPO receptor.
Source text: as §1

The next assay concerns the target T2, human TPO receptor (Homo sapiens, UniProt P40238).
T2 construct: expressed in transfected cells; host or cells: HepG2
T2 sequence (P40238 26-635): T1 sequence (P40238 26-635 H499L) with L474H
As to the kind of experiment: luciferase reporter in HepG2 cells cotransfected with human TPO receptor. The note with it: HepG2 cotransfected with human TPO receptor expression vector and reporter. Type of assay: cell-based.
Source text: as §2, §3
Human Tpo receptor (hMPL) was cloned from HEL 92.1.7 cells (ATCC, Rockville, Md.) by PCR (forward primer: 5′-ACGAAGCTTAGCCAAGATGTCTCCTTGCTGGCAT-3′ and reverse primer: 5′-AGCCTCGAGTCAAGGCTGCTGCCAATAGCT-3′). The cloned full-length cDNA was confirmed by DNA sequencing analysis, then subcloned into HindIII-XhoI digested pSSF vector. The cynomolgous Tpo-R (cMPL) was cloned from bone marrow cDNA using the human 5′ and 3′ terminal coding sequences. The full-length cDNA was sequenced and subcloned into EcoRI digested pCDNA3. 1 (+) vector (Invitrogen, San Diego, Calif.). […]
HepG2 cells were plated in 24-well plates in triplicates for overnight. […] The cells were then lysed and the level of luciferase expression was measured by a plate reader.

With “TPO: thrombopoietin, natural protein ligand of the TPO receptor”, the receptor response entry with human TPO receptor H499L was “little effect on the response”. Besides, the “response, luciferase expression” value with HepG2 is recorded as “do not respond”; in the assay with human TPO receptor, “large increase in luciferase expression”. The receptor activation result in the assay with cyno TPO receptor L499H is given as “activated”.
